From patent publication US20100290984A1 (DUKE UNIVERSITY, published 2010) come the findings set out here.

No end group written: not given here.

Experiment [1] addresses T1, MRP3-derived peptide I (PepI) (human, conjugated to BSA in the ELISA; biotinylated in BIAcore and on streptavidin beads (site of attachment not stated)).
T1 construct: Same peptide used as BSA conjugate (ELISA) and as biotinylated peptide (SPR on SA chip, bead assay); also called PepI antigen
T1 peptide: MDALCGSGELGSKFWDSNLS
In words: SPR, BIAcore 3000, biotinylated peptide on SA chip, scFv in flow. The procedure:
(§1) Kinetic measurements of purified recombinant scFv were made by surface plasmon resonance using a BIAcore 3000 Biosensor (BIAcore, Piscataway, N.J.). Chips were functionalized with biotinylated peptides derived from MRP3 protein by using HEPES balanced salt solution (HBSS buffer), 10 mM HEPES pH 7.4, 150 mM NaCl, 3.4 mM EDTA, and 0.05% BIAcore surfactant P20. The scFv antibodies were diluted in HBSS buffer and passed over the SA chip at concentrations of 25, 200, and 1000 nM. The flow rate was kept at 30 μl/min, and the injection time was 3 min. Binding constants were calculated from the nonlinear fitting curve by using the BlAevaluation software (BIAcore).
For orientation: In SPR one partner is held on a chip, and binding of the other changes the refractive index at the surface.

Experiment [2] concerns the target T1, MRP3-derived peptide I (PepI). In words: SPR, BIAcore 3000, KA=kassoc/kdiss. The protocol: as §1
(§2) The association and dissociation rates from the sensograms were in the same range for PepI-58 scFv, PepI-25 scFv, and PepII-89 scFv. […] The final binding affinity was determined by the software developed by BIAcore based on the kinetics calculated among various concentrations of antibody. PepI-25 scFv had kassoc=1.3×10⁵ (mol/L-s)⁻¹, kdiss=2.8×10⁻³ s⁻¹, and KA=kassoc/kdiss, was 4.6×10⁷ (mol/L)⁻¹.

Experiment [3] concerns the target T2, human multidrug resistance protein 3 (MRP3) (human, UniProt O15438 1-1527).
T2 construct: whole, on cells; ABC transporter; endogenous on human malignant glioma cell lines D54MG, D247MG and pediatric GBM line D2159; also called cell-surface-expressed MRP3; native MRP3
In words: indirect flow cytometry on viable D2159 cells (surface), anti-His-FITC detection.

For experiment [4], the target named is T3, MRP3-derived peptide IV (PepIV) (human, also: conjugated to BSA, biotinylated, site not given here).
T3 construct: Same peptide used as BSA conjugate (ELISA) and as biotinylated peptide (SPR)
T3 peptide: KIRSPQSFFDTTPSGRI
In words: ELISA, plate coated with MRP3-derived peptides conjugated with BSA, purified scFv, HRP anti-His detection. The protocol: (§3) A 96-well plate was coated with 10 μg/ml of specific MRP3-derived peptides conjugated with BSA as antigen and BSA and other appropriate control antigens. The rest of the protocol was as described above except that the purified scFv antibodies were added in serial dilution to the wells, and the secondary Ab used was HRP-conjugated anti-His antibody at 1:5000 dilution (Invitrogen, Carlsbad, Calif.). To check for cross-reactivity of the recombinant scFvs, the ELISA plate was coated with different peptide antigens (i.e., PepI, PepII, PepIII, PepIV) derived from MRP3, conjugated to BSA with other controls. ScFv antibodies were then added at a 10 μg/ml concentration to each well.
In general terms: In an ELISA, binding on a coated surface is turned into a signal by an enzyme label.

Experiment [5] has as its target T4, MRP3-derived peptide II (PepII) (human, also: conjugated to BSA, biotinylated, site not given here).
T4 construct: Same peptide used as BSA conjugate (ELISA) and as biotinylated peptide (SPR on SA chip, bead assay); also called PepII antigen
T4 peptide: VHTENPDLTPCF
The experiment is described as above. The protocol:
as §3

The target in experiment [6] is T5, MRP3-derived peptide III (PepIII) (human, also: conjugated to BSA, biotinylated, site not given here).
T5 construct: Same peptide used as BSA conjugate (ELISA) and as biotinylated peptide (SPR)
T5 peptide: DAMADSRQNNTSLRL
The experiment is described as above. The procedure:
as §3

The target in experiment [7] is T4, MRP3-derived peptide II (PepII). In words: SPR, BIAcore 3000, biotinylated peptide on SA chip, scFv in flow. The procedure: as §1
For experiment [8] the target is unchanged. In words: SPR, BIAcore 3000, KA=kassoc/kdiss. The protocol: as §1, §2
The target of experiment [9] is T1, MRP3-derived peptide I (PepI). In words: ELISA, plate coated with MRP3-derived peptides conjugated with BSA, purified scFv, HRP anti-His detection. The procedure: as §3
In experiment [10] the target is T3, MRP3-derived peptide IV (PepIV). In words: ELISA, peptide-BSA coated, purified scFv, anti-His-HRP. The protocol: as §3
For experiment [11], the target named is T4, MRP3-derived peptide II (PepII). Described as above. The protocol:
as §3

Experiment [12] addresses T5, MRP3-derived peptide III (PepIII). The experiment is described as above. The protocol:
as §3

In experiment [13] the target is T1, MRP3-derived peptide I (PepI). In words: SPR, BIAcore 3000, biotinylated pep-I on SA chip, scFv 25 to 1000 nM. The protocol: as §1, §2
The target is the same in experiment [14]. In words: ELISA, peptide-BSA coated, purified scFv, anti-His-HRP. The protocol:
as §3

For experiment [15], the target named is T2, human multidrug resistance protein 3 …. In words: indirect flow cytometry on MRP3-expressing glioma cells. The protocol:
To determine that the purified anti-MRP3 scFvs bind native MRP3 expressed on the surface of tumor cells, indirect fluorescence-activated cell sorting (FACS) was performed using MRP3-expressing D54MG and D247MG cells under both permeabilized and nonpermeabilized conditions. Indirect FACS analysis of MRP3 expression on the surface of viable malignant pediatric GBM cell line D2159 growing as neuroshperes was also performed.
For cytometric analysis of PepI-58, PepI-25, PepII-89, PepIII-23, and PepIV-17 scFv antibodies, D54MG and D247MG cells (1×10⁶/test) were harvested with 0.02% EDTA/PBS and fixed by resuspending them in 2-4 ml of 10% formaldehyde. After washing, the cells were blocked with 10% normal goat serum (NGS) with and without saponin for 20 min. Saponin was added to facilitate the permeabilization for examining all […] receptors. Cells were washed twice and incubated with anti-his (C-terminus)-FITC conjugated antibody (1:5000, Invitrogen, Carlsbad, Calif.) for an hour at room temperature. Finally, cells were suspended in 0.5% PFA/BSA and freshly analyzed by using a Becton Dickinson FACSort with CellQuest software (Becton Dickinson, San Jose, Calif.).
In general terms: In flow cytometry, cells or beads pass a laser one at a time.

Experiment [16] addresses T5, MRP3-derived peptide III (PepIII). In words: SPR, BIAcore, biotinylated peptide on chip.

B1: PepI-58 scFv (scFv)
scFv: EVQLVQSGGGLVQPGGSLRLSCSASGFTFSNYAMHWVRRAPGKGLEYVSAISSNGGSTYYADSVKGRFTISRDNPKNTLYLQMNSLRAEDTAVYYCVRGRPYPLDVWGKGTLVTVSSGGGGSGGGGSGGGGSQSVLTQPPSASGTPGQRVTISCSGSSSNIESHAVNWYQHLPGSAPKLLIYFNNHRPSGVPERFSASKSGTSASLAISGLQSEDEADYYCAAWDDSLNGPVFGGGTKLTVLGQPKAAPS
notes: also called anti-MRP3 PepI-58scFv; not shown: Myc and hexahistidine tags from the pET 22(+) vector, at the C terminus
Take B1: the off-rate (koff) in experiment [1] was found to be 0.0034 s⁻¹. In experiment [2], the Ka was found to be 2.1e+07 M⁻¹. The binding result in experiment [3] is “binds”; in experiment [4] it was “no binding (tested: 10 ug/ml)”; in [5] it was “no binding (tested: 10 ug/ml)”; in experiment [6] it was “no binding (tested: 10 ug/ml)”.

B2: PepII-89 scFv (scFv)
scFv: QVQLVQSGGGVVQPGRSLRLSCAASGFTFSSYGMHWVRQDPGKGLMWVSSISTDGSATKYADSVKGRFTISRDNAKNTVSLQMNSLRAEDTAVYYCVGGFLGWWGQGTLVTVSSGGGGSGGGGSGGGGSEIVLTQSPATLSLSPGERATLSCRASQSVGGSYLAWYQQKPGQAPRLLIYGASRRATGIPARFSGSGSGTDFTLTISSLQPEDFASYFCQQTNTFPLTFGGGTKVEIKRTVAAPTAAA
notes: also called anti-MRP3 PepII-89scFv; not shown: Myc and hexahistidine tags from the pET 22(+) vector, at the C terminus
As for B2, in experiment [7], the koff amounted to 0.005 s⁻¹. In experiment [8], this molecule had a Ka of 1e+07 M⁻¹. Further, the binding result in experiment [4], in [6] and in [9] was “no binding (tested: 10 ug/ml)” each time.

B3: PepI-25 scFv (scFv)
scFv: EVQLVESGGGLVQPGGSLRLSCAASGFTFSNYAMTWVRQAPGKGLEWVSAISGSGGSTYYADSVKGRFTISRDNSKNTLYLQMNSLRAEDTAVYYCATGDLDYWGQGTTVTVSSGGGGSGGGGSGGGGSQTVVTQEPSLTVSPGGTVTLTCASSTGAVTSGYYPNWFQQKPGQAPRALIYSTSNKHSWTPARFSGSLLGGKAALTLSGVQPEDEAEYYCLLYYGGAQPYVVFGGGTKVTVLGQPKAAPS
notes: not shown: Myc and hexahistidine tags from the pET 22(+) vector
As for B3, the binding result in experiment [10] is recorded as “no binding (tested: 10 µg/ml)”; in experiment [11] it was “no binding (tested: 10 µg/ml)”; in [12] it was “no binding (tested: 10 µg/ml)”; in experiment [3], “binds”. The molecule further registered a Ka in experiment [2] of 4.6e+07 M⁻¹. Also, the koff in [13] was found to be 0.0028 s⁻¹.

B4: PepIII-23 scFv (scFv)
scFv: EVQLVQSGGGLVKPGGSLRLSCAASGFSFNNYAGSWVRQAPGKGLEWISALSSGGDTTYYADSVAGRFAISRDNSKNTLYLQMHSLRAEDTAIYYCAQDPVVGAPGYFGLWGRGTLVTVSSGGGGSGGGGSGGGGSQSVLTQPPSASGSSGQSVTISCTGTSSDIGGYNYVSWYQQHPGKAPKLMIYEVSKRPSGVSDRFSGSKSGSTASLHISGLQAEDEADYYCSSYSSNNAPYVFGSGTKVAVLGQPKAAPS
notes: as for B3
In the case of B4, the binding result is reported as “no binding (tested: 10 µg/ml)” in experiment [10]; “no binding (tested: 10 µg/ml)” in experiment [11]; “no binding (tested: 10 µg/ml)” in experiment [14]; “no binding” in [15]; “binds” in experiment [16].

A word on the koff: it is the rate constant with which the complex falls apart. A high value points to a short-lived complex.
